Patent publication US20190161551A1 (Regeneron, published 2019)

Experiments:
[1] = target: T1, mouse TrkB extracellular domain expressed with a C-terminal myc-myc-hexahistidine tag (mouse, UniProt P15209 32-429); assay: SPR, mAb captured (anti-hFc), 25C
T1 construct: also called mTrkB.mmH; mTRKB.mmH
Description: (§1) Equilibrium dissociation constants (KD values) for TrkB binding to purified anti-TrkB monoclonal antibodies were determined using a real-time surface plasmon resonance biosensor using a Biacore 4000 instrument. All binding studies were performed in 10 mM Hepes pH 7.4, 150 mM NaCl, 3 mM EDTA, and 0.05% v/v Surfactant Tween-20 (HBS-ET running buffer) at 25° C. and 37° C. […] Binding studies were performed on following TrkB reagents; human TrkB extracellular domain expressed with a C-terminal myc-myc-hexahistidine tag (hTRKB.mmH; SEQ ID NO: 76; Accession number NP_001018074.1), mouse TrkB extracellular domain expressed with a C-terminal myc-myc-hexahistidine tag (mTRKB.mmH; SEQ ID NO: 79; Accession number NP_001020245), rat TrkB extracellular domain expressed with a C-terminal myc-myc-hexahistidine tag (rTRKB.mmH; SEQ ID NO: 84; Accession number NP_036863.1), and human TrkB extracellular domain expressed with a C-terminal mouse IgG2a Fc tag (hTrkB-mFc; SEQ ID NO: 77; Accession number NP_001018074.1). […] Kinetic association (kₐ) and dissociation (kd) rate constants were determined by fitting the real-time binding sensorgrams to a 1:1 binding model with mass transport limitation using Scrubber 2.0c curve-fitting software. Binding dissociation equilibrium constants (KD) and dissociative half-lives (t½) were calculated from the kinetic rate constants as: […]

[2] = target: T2, rat TrkB extracellular domain expressed with a C-terminal myc-myc-hexahistidine tag (rat, UniProt Q63604 32-429); assay: SPR, mAb captured (anti-hFc), 25C
T2 construct: also called rTrkB.mmH; rTRKB.mmH
T2 sequence (Q63604 other isoform, or with tags, fused parts or gaps): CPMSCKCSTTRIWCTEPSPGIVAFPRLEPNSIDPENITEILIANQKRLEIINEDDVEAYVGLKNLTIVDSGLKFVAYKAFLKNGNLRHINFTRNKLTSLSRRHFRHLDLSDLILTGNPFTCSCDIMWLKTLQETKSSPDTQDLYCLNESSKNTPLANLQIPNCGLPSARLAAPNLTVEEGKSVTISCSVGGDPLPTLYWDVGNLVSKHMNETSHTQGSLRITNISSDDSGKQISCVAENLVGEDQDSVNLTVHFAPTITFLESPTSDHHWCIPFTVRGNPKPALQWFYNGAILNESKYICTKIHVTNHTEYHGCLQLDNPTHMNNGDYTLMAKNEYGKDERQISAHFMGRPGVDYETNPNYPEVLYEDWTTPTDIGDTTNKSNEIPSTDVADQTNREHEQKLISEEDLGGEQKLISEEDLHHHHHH
Description: as §1

[3] = target: T3, human TrkB extracellular domain expressed with a C-terminal myc-myc-hexahistidine tag (human, UniProt Q16620 32-430); assay: SPR, mAb captured (anti-hFc), 25C
T3 construct: also called hTrkB.mmH; hTRKB.mmH
T3 sequence (Q16620 other isoform, or with tags, fused parts or gaps): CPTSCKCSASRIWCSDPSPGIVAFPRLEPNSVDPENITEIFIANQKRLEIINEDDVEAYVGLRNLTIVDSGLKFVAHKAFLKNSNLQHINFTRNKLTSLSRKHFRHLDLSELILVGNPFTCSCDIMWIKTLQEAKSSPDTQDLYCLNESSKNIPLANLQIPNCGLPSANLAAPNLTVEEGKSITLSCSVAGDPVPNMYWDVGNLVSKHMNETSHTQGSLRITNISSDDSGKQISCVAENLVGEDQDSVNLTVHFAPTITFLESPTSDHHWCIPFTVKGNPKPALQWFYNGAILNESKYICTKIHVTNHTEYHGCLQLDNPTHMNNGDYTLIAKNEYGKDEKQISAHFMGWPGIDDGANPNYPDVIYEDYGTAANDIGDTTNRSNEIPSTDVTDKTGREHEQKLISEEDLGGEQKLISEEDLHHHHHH
Description: as §1

[4] = target: T4, human TrkB extracellular domain expressed with a C-terminal mouse IgG2a Fc tag (human); assay: SPR, mAb captured (anti-hFc), 25C
T4 construct: also called hTrkB-mFc; hTrkB.mFc
T4 sequence (chain, as listed by the source limits assumed): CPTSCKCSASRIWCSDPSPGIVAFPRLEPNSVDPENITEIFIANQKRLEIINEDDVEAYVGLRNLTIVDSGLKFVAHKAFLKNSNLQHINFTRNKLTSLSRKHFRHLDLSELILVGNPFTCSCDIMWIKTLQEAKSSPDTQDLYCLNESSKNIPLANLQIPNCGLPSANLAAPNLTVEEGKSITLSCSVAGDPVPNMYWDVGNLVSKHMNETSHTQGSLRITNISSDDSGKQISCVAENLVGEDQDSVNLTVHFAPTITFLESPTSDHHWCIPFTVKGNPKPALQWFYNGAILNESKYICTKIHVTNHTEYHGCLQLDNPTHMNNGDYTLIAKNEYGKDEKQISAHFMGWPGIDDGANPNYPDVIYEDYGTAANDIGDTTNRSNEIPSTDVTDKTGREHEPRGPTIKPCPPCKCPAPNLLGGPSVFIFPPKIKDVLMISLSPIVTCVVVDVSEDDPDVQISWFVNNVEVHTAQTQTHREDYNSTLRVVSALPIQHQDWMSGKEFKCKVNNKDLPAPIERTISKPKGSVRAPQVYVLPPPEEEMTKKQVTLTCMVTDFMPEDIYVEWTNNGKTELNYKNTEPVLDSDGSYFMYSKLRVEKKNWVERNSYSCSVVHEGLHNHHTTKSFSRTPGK
Description: as §1

[5] = target: T4, human TrkB extracellular domain …; assay: BLI Octet, captured hTrkB.mFc saturated with BDNF, 300 nM mAb
Description: (§2) Blocking of anti-human TrkB or anti-mouse TrkB antibodies from binding to TrkB by BDNF or NT-4 was evaluated using a real-time bio-layer interferometry (BLI) based Octet HTX instrument. The entire study was performed in 10 mM HEPES pH 7.4, 300 mM NaCl, 3 mM EDTA, 1 mg/mL BSA, 0.02% NaN3 and 0.05% v/v Surfactant Tween-20 (HBS-EBT running buffer) at 25° C. All the samples were dispensed in a 384 tilted well plate and the plate was placed on the orbital shaker with the shake speed of 1000 rpm. hTrkB.mFc was captured on anti-mFc (AMC) Octet sensors while hTrkB.hFc or mTrkB.hFc were captured on anti-hFc (AHC) Octet sensors by dipping in wells containing 10 μg/mL of TrkB reagents for 2 minutes. hTrkB.mFc or hTrkB.hFc captured Octet biosensors were saturated by dipping in wells containing 20 nM of BDNF, hNT-4, or mNT-4 for 2 minutes followed by dipping Octet biosensors in wells containing 300 nM of different TrkB mAbs for 4 minutes. Binding of TrkB mAbs to the complex of TrkB and BDNF, hNT-4, or mNT-4 was determined using Scrubber 2.0c analysis software.

[6] = target: T5, human TrkB extracellular domain (aa Cys32-His430) expressed with the Fc portion of human IgG1 at the … (human); assay: competition ELISA, 500 pM hTrkB-hFc pre-mixed with mAb, plate-coated hNT-4
T5 construct: also called hTrkB-hFc; hTrkB.hFc
T5 sequence (chain, as listed by the source limits assumed): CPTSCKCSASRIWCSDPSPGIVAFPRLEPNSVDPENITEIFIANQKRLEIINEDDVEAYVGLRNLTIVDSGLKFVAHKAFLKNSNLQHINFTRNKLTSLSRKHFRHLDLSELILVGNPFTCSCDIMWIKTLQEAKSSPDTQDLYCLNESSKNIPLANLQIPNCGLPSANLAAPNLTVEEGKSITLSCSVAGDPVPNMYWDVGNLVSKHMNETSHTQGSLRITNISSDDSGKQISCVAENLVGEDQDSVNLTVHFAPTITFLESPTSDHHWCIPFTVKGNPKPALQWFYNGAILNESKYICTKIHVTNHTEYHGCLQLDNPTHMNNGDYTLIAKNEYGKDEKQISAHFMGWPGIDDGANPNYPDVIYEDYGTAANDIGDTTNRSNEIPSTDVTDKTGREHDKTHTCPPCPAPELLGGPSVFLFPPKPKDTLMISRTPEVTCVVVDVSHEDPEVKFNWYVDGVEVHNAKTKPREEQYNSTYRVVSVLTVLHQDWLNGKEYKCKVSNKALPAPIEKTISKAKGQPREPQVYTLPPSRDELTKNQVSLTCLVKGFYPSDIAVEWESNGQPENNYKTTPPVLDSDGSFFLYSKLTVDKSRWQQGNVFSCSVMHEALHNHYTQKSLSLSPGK
Description: Experiments were carried out using the following procedure. Human BDNF or NT-4 were separately coated at a concentration of 0.5 μg/mL or 2 μg/mL, respectively, in PBS on a 96-well microtiter plate overnight at 4° C. […] Blocking solution and dilution buffer contained 5% (w/v) solution of BSA in PBS for assay with BDNF coat, or 0.5% (w/v) solution of BSA in PBS for assay with NT-4 coat. On separate microtiter plates, a constant amount of 500 pM of hTrkB-hFc protein was added to serial dilutions of antibodies with final concentrations ranging from 1.7 pM to 100 nM, and solutions with no antibody present. (The constant concentration of hTrkB-hFc for antibody inhibition assays was selected from the approximate midway point within the linear portion of individual binding curves of hTrkB-hFc to plate-coated hBDNF or hNT-4). After one hour incubation at room temperature, antibody-protein complexes with 500 pM constant concentration of hTrkB-hFc protein were transferred to microtiter plates coated with hBDNF or hNT-4. After one hour incubation at room temperature, the wells were washed, and plate-bound hTrkB-hFc was detected with anti-human Fcγ fragment specific goat polyclonal antibodies conjugated with horseradish peroxidase (JacksonImmunoResearch). The plate was then developed using TMB substrate solution (BD Biosciences) according to manufacturer's recommendation and absorbance at 450 nm was measured on a Victor plate reader (PerkinElmer™).
The ability of anti-TrkB antibodies to block TrkB binding to BDNF or NT-4 was assessed using two competition sandwich ELISAs. Human TrkB-hFc binding to hBDNF or hNT-4 coated on 96-well microtiter plates, in the presence of serially diluted antibodies or no antibody controls, were detected with HRP-conjugated anti-human Fcγ fragment specific goat polyclonal antibodies. IC₅₀ values were calculated and used as the potency indicator of antibody blocking hTrkB-hFc binding to hBDNF or hNT-4. In addition, the maximum blockade of 500 pM hTrkB-hFc with each antibody at the highest tested concentration was calculated and compared.

[7] = target: T6, mouse TrkB.hFc (mouse); assay: BLI Octet, captured mTrkB.hFc saturated with BDNF, 300 nM mAb
T6 construct: also called mTrkB.hFc; mTrkB-hFc
T6 sequence (chain, as listed by the source limits assumed): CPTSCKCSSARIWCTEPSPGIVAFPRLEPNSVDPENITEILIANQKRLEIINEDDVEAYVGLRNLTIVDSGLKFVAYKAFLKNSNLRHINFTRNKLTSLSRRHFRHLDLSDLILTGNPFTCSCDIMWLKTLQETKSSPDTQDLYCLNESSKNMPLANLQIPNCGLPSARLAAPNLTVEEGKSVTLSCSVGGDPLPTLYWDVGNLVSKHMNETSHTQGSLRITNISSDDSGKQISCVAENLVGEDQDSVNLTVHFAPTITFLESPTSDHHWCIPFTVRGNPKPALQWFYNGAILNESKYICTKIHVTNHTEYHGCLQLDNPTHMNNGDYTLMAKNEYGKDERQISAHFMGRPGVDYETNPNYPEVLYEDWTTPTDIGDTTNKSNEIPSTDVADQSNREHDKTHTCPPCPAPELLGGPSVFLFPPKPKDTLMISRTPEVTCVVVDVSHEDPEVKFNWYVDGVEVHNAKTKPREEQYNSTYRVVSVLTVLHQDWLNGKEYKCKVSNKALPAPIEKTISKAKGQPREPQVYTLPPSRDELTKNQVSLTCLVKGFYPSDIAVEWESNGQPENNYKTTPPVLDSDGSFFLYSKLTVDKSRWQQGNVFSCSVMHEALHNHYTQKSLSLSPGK
Description: as §2

[8] = target: T6, mouse TrkB.hFc; assay: BLI Octet, captured mTrkB.hFc saturated with mNT-4, 300 nM mAb
Description: as §2

T1 sequence (P15209 other isoform, or with tags, fused parts or gaps): as the sequence (Q63604 other isoform, or with tags, fused parts or gaps) above, with M3T, T9S, T10A, I32V, K63R, G84S, T153M, I185L, T394S counted along it

B1: H4H9780P (antibody, human IgG4 S228P, kappa, V domains shown)
VH: QVQLVESGGGVVQPGRSLRLSCAASGFSFSSFGMHWVRQAPGKGLEWVSVISYDGINTYYTDSVKGRFTISRDNSKNTLYLQMNGLRAEDTALYYCVQGSIGTVFEYWGQGTLVTVSS
VL: DIQMTQSPSSLSASVGDRVTITCRASQGISNYLAWYQQKPGKVPKLLIYAASTLQSGVPSRFGGSGSGTDFTLTISSLQPEDVATYYCQKYTSAPFTFGPGTKVDIKR
notes: Fully human anti-human TrkB agonist antibody, human IgG4 Fc; also called H4H9780P-L1
Question: How did the “100 nM mTrkB.mmH Bound (RU)” value [1] turn out when B1 was run?
Answer: -1 RU

Question: What about the “100 nM rTrkB.mmH Bound (RU)” value [2] of the same binder?
Answer: -1 RU

Question: What about the “100 nM hTrkB.mmH Bound (RU)” value [3] of the same binder?
Answer: 20 RU

Question: What about the Kd [3] of the same binder?
Answer: 21.7 nM

Question: And the koff [3]?
Answer: 0.000867 s⁻¹

Question: What about the kon [3] of the same binder?
Answer: 40000 M⁻¹ s⁻¹

Question: What about the “t½” value [3] of the same binder?
Answer: 13 min

Question: And the “100 nM hTrkB-mFc Bound (RU)” value [4]?
Answer: 14 RU

Question: And the Kd [4]?
Answer: 4.48 nM

Question: What about the koff [4] of the same binder?
Answer: 0.000168 s⁻¹

Question: And the kon [4]?
Answer: 37400 M⁻¹ s⁻¹

Question: And the “t½” value [4]?
Answer: 69 min

Question: And the “antibody Binding (nm)” value [5]?
Answer: 0.2 nm

Question: What about the “% Blockade with 100 nM antibody” value [6] of the same binder?
Answer: 80%

Question: What about the IC50 [6] of the same binder?
Answer: 0.18 nM

B2: H1M8037C (antibody, mouse IgG1, kappa, V domains shown)
VH: QVQLVQSGAEVKKPGASVKVSCKASGYTFTNYDIIWVRQAPGQGLEWMGYINPYNDGTKYNEKFKGRVTMTRDTSTSTVYMELSSLRSEDTAVYYCARLLKYRRFRYYAIDYWGQGTTVTVSS
VL: DIQMTQSPSSLSASVGDRVTITCRTSENVYSNLAWYQQKPGKAPKLLIYAASNLQSGVPSRFSGSGSGTDYTFTISSLQPEDIATYYCQHFWGSPFTFGQGTKLEIKR
notes: captured by anti-mFc in SPR; also called Comparator; comparator anti-TrkB monoclonal antibody
Question: How did the “antibody Binding (nm)” value [7] turn out when B2 was run?
Answer: 0.06 nm

Question: What about the “antibody Binding (nm)” value [8] of the same binder?
Answer: 0.11 nm

Question: What about the “% Blockade with 100 nM antibody” value [6] of the same binder?
Answer: 95%

Question: What about the IC50 [6] of the same binder?
Answer: 0.045 nM

B3: H4H9814P (antibody, human IgG4 S228P, kappa, V domains shown)
VH: EVQLVESGGGLVQPGGSLKLSCTASGFTFSGSVIHWVRQASGKGLEWIGRIRNKANSYATAYGASVTGRFTISRDDSKNTAYLQMNSLKTEDTAVYYCTFPGVVGRGGFDYWGQGTLVTVSS
VL: DIVMTQSPDSLAVSLGEGATINCMSSQSVLFSSNNKNYLAWYQQKPGQPPKLLFYWASTRESGVPDRFGGSGSGTDFSLTINSLQTEDVAVYYCLQYYSIPWTFGQGTKVEIKR
notes: Fully human anti-human TrkB agonist antibody, human IgG4 Fc; also called H4H9814P-L1
Question: With B3 as the binder, how does the “100 nM mTrkB.mmH Bound (RU)” value [1] read?
Answer: -2 RU

Question: What about the “100 nM rTrkB.mmH Bound (RU)” value [2] of the same binder?
Answer: -1 RU

Question: And the “100 nM hTrkB.mmH Bound (RU)” value [3]?
Answer: 63 RU

Question: And the Kd [3]?
Answer: 0.545 nM

Question: And the koff [3]?
Answer: 0.000686 s⁻¹

Question: And the kon [3]?
Answer: 1.26e+06 M⁻¹ s⁻¹

Question: And the “t½” value [3]?
Answer: 17 min

Question: What about the “100 nM hTrkB-mFc Bound (RU)” value [4] of the same binder?
Answer: 69 RU

Question: And the Kd [4]?
Answer: 0.0311 nM

Question: What about the koff [4] of the same binder?
Answer: 5.95e-05 s⁻¹

Question: And the kon [4]?
Answer: 1.91e+06 M⁻¹ s⁻¹

Question: And the “t½” value [4]?
Answer: 194 min

Question: What about the “antibody Binding (nm)” value [5] of the same binder?
Answer: 0.22 nm

Question: And the “% Blockade with 100 nM antibody” value [6]?
Answer: 38%

B4: M2aM14173N (antibody, mouse IgG2a, kappa, V domains shown)
VH: NVSLVESGGGSVKPGGSLQLSCAASGFTFSSSAMSWIRQTPEMRLEWVATISDRGSYTYYPDSVEGRFTISRDNAKNILYLQMSHLMSEDTAMYYCARGKGEKAYYTAFFAYWGQGSLVTVSA
VL: DIQMTQSPASLSASVGETVTITCRASENIYSYLAWYQQKPGKSPHLLVHNAETLAEGVPSRFSGSGSGPQFSLKINSLQPGDSGTYYCQHHYSSPWTFGGGTKLEIKR
notes: Anti-mouse TrkB antibody from hybridoma, mouse IgG2a Fc; also called surrogate anti-mouse TrkB antibody
Question: For B4, which “antibody Binding (nm)” value [7] is on record?
Answer: 0.38 nm

Question: What about the “antibody Binding (nm)” value [8] of the same binder?
Answer: 0.4 nm

B5: M2aM14179N (antibody, mouse IgG2a, kappa, V domains shown)
VH: EVQLQQSGPELVKPGASVKISCKASGYTLTDYYMNWVKQSHGKSLEWIGDINPNNGGTSYNQKFKGKATLTVDKSSSTAYMELRSLTSEDSAVYYCARGAYYSNYFDYWGQGTTLTVSS
VL: DIVMSQSPSSLAVSAGEKVTMSCKSSQSLLNSRTRKNYLAWYQQKPGQSPKLLIYWASTRESGVPDRFTGSGSGTDFTLTISSVQAEDLAVYYCKQSYILFTFGSGTQLEIKR
notes: as for B4
Question: Which results are given for B5?
Answer: antibody Binding (nm) [7]: 0.44 nm; antibody Binding (nm) [8]: 0.43 nm

B6: H4H9816P2 (antibody, human IgG4 S228P, kappa, V domains shown)
VH: EVQLVESGGGLVQPGGSLTLSCAASGFNFRDYEMIWVRQTPGKGLEWISYISNSGYTIYYADSVKGRFTISRDNARNSIYLQVNSLRAEDTAVYYCSRRTTMIRGIRAYYYYGLDVWGQGTTVTVSS
VL: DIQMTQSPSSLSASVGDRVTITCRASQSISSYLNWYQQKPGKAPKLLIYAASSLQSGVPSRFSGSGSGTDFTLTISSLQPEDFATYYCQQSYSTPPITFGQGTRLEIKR
notes: Fully human anti-human TrkB agonist antibody, human IgG4 Fc; also called H4H9816P-L1
Question: Which results are given for B6?
Answer: 100 nM mTrkB.mmH Bound (RU) [1]: 0 RU; binding result [1]: no binding (tested: 100 nM); 100 nM rTrkB.mmH Bound (RU) [2]: 0 RU; 100 nM hTrkB.mmH Bound (RU) [3]: 30 RU; Kd [3]: 13.8 nM; koff [3]: 0.000845 s⁻¹; kon [3]: 61400 M⁻¹ s⁻¹; t½ [3]: 14 min; 100 nM hTrkB-mFc Bound (RU) [4]: 25 RU; Kd [4]: 1.22 nM; koff [4]: 7.98e-05 s⁻¹; kon [4]: 65200 M⁻¹ s⁻¹; t½ [4]: 145 min; antibody Binding (nm) [5]: 0.26 nm; % Blockade with 100 nM antibody [6]: -123%
